Test [1] relates to platelet poor plasma (PPP). Nature of the test: Dynamic in vitro clotting in endothelialized microfluidic device. Type of test: biochemical, human. As to conditions: platelet-poor plasma under flow. How it is done:
To characterize the effect of microgels on clotting in vitro, a endothelialized microfluidics device that accurately recapitulates the cellular, physical, and hemodynamic environment of microcirculation, was used as previously described, Jackson, et al., Journal of Thrombosis and Haemostasis: JTH 7 Suppl 1:17-20 (2009). For these experiments, clotting of platelet poor plasma (PPP) was analyzed in the absence or presence of fibrin-binding microgels of varying degrees of crosslinking in real time using confocal microscopy. As a control, clotting of platelet rich plasma (PRP) or PPP in the presence of non-fibrin binding microgels were also investigated. Microgels or buffer were added to PPP immediately prior to injection into the microfluidics device. To visualize clotting, PPP was spiked with Alexa Fluor-488 labeled fibrinogen. Endothelial cells were stained with Cell Mask Deep Red (Invitrogen) and microgels were labeled with Alexa Fluor 546. For experiments utilizing PRP, platelets were stained with Cell Mask Red (Invitrogen). Samples were flowed at 1.1 μL/min and imaged continuously for 20 min. Clotting overtime was characterized through imaging processing with Image J (NIH). Each microfluidic device is comprised of three regions of different flow rates, comprising four endothelialized channels.

The next test addresses T1, fibrin clots (Homo sapiens, UniProt P02671+P02675+P02679).
T1 sequence (P02671 36-866 limits assumed): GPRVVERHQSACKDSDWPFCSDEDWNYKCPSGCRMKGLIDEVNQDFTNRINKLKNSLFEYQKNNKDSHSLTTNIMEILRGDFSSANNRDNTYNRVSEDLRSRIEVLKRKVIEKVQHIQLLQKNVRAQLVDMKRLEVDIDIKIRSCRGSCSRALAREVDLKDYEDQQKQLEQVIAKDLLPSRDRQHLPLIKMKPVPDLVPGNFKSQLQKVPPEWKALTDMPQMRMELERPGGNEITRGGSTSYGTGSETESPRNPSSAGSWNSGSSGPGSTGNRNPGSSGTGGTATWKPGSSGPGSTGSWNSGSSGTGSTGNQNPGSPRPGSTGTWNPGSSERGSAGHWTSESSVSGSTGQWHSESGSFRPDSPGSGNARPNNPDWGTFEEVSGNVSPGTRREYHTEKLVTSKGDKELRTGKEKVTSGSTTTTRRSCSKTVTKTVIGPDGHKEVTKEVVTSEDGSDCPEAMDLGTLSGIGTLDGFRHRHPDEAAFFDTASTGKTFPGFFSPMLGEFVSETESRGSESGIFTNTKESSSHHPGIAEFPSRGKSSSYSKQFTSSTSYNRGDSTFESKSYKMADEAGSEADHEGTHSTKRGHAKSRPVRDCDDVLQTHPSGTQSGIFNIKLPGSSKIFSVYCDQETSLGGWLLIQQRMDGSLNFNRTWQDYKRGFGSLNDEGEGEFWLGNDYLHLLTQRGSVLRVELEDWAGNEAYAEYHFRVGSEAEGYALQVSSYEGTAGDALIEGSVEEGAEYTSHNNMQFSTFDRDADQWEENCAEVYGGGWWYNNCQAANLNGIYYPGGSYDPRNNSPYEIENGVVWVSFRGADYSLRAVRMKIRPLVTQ
T1 sequence (P02675 45-491 limits assumed): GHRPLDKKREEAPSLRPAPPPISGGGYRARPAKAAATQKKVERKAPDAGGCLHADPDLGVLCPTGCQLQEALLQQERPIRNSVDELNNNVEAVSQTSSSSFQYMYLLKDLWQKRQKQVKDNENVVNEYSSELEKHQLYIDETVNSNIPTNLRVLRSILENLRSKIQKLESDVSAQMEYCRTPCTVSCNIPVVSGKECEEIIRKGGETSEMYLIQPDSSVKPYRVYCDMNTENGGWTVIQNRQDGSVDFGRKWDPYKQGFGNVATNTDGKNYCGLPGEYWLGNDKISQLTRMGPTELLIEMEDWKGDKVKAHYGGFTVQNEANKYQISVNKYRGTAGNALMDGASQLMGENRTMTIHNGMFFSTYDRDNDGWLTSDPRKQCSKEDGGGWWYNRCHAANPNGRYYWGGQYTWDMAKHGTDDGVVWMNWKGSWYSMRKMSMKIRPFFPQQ
T1 sequence (P02679 27-453): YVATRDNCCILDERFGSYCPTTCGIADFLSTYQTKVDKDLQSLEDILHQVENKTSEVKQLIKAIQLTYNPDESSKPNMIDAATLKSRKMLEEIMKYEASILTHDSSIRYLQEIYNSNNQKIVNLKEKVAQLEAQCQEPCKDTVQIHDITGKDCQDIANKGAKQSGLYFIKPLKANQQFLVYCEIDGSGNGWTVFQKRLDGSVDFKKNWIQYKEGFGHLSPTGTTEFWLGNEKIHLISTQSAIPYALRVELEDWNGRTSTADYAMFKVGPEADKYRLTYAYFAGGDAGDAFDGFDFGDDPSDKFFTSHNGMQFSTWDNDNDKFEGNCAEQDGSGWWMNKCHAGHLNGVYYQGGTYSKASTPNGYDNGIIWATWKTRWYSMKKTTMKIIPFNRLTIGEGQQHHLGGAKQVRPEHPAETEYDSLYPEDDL
Nature of the test: Clot microstructure by confocal microscopy. The class given is biochemical. Further details: from tissue; host or cells: blood plasma (platelet-rich or platelet-poor). The note with it: clots formed in presence of particles, compared to control (fibrin-only) clots. The source says:
FIGS. 4A and 4B are maximum-intensity confocal images of fibrin clots formed from platelet-rich plasma (PRP) or platelet-poor plasma (PPP) in the absence or presence of PLPs or S11-ULCs. Fibrin, grey; microgels/platelets, circled.
To allow appreciation of the network structure in the presence of saturation, 0.33× exposures and equivalent exposures are shown on the left- and right-hand sides, respectively, of the images for PRP and PLP clots. […] FIG. 4E is a graph showing the calculated spread area of PLPs, natural platelets, S11-ULCs and H6-PS particles within fibrin matrices. (**p<0.01, ***p<0.001).
To further characterize the nature of PLP-fibrin interactions, clot microstructure was analyzed via confocal microscopy by forming clots in the presence or absence of scFv-ULC microgels. […] These clots were highly heterogeneous, containing regions of dense fibrin observed in conjugation with PLPs (FIG. 4A) with the dense features becoming more pronounced over time. These features were very similar to those observed from clots formed in platelet-rich plasma, although occurring on a different time scale.

B1: PLPs: ultra-low crosslinked pNIPAm-AAc microgels conjugated to fibrin-specific sdFv H6 (conjugate)
VH: QVQLLESGGGLVQPGGSLRLSCAASGDRFTHNDMGWVRQAPGKGLEWVSTIPTTDGSTYYADSVKGRFTISRDNSKSTLYLQMNSLRAEDTAVYYCATGYMWKAPAYVKYWGQGTLVTVSSAAAEQKLISEEDLNSAAHYTDIG
Take B1: the “fibrin clot formation in response to thrombin” value in test [1] is reported as “successfully rescued fibrin clot formation”. For the same molecule, the clot structure result in the test with fibrin clots is “significantly altered clot structure”.

These data come from patent publication US11419948B2, “Functionalized microgels with fibrin binding elements” (Georgia Tech Research Corporation, priority 2013, dated 2022).
